Assay results published in patent publication US20130045922A1 (CHILDREN S MEDICAL CENTER, published 2013).

Target: I^125-VEGF
Experiment: cell-based or functional assay

Chain of I^125-VEGF (P15692 whole entry): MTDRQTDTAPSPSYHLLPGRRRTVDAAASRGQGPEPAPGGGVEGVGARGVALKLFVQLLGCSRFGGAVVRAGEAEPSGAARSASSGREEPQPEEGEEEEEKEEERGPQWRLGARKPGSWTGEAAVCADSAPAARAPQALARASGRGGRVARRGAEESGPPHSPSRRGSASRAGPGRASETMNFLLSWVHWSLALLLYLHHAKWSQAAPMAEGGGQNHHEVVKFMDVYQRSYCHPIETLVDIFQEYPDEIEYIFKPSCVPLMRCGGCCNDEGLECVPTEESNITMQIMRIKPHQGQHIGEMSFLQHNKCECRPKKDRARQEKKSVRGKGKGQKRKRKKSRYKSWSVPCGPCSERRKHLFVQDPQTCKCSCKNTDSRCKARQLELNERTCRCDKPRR

- ability of endothelial cells to bind VEGF in the presence of peptide: > 2 fold over original #237
Binder: DRVQAQTTTVVA [Ala-5 (DRVQAQTTTVVA)]
